Measured values from publication PMC10457330, “Structural basis for the allosteric modulation of rhodopsin by nanobody binding to its extracellular domain” (Nature Communications, 2023).
Values belong to the binder of their own block, whether it stands above or below them.

How the values were obtained:
[1] = target: ground-state bovine rhodopsin (native, from rod outer segments) (bovine, UniProt P02699, 11-cis-retinylidene chromophore (Schiff base at Lys296); N-linked glycans at Asn2 and Asn15)
[2] = target: photoactivated bovine rhodopsin (Bos taurus (native, rod outer segments), UniProt P02699, all-trans-retinylidene chromophore after photoisomerization; N-linked glycans at Asn2 and Asn15)
photoactivated bovine rhodopsin, sequence (P02699 whole entry): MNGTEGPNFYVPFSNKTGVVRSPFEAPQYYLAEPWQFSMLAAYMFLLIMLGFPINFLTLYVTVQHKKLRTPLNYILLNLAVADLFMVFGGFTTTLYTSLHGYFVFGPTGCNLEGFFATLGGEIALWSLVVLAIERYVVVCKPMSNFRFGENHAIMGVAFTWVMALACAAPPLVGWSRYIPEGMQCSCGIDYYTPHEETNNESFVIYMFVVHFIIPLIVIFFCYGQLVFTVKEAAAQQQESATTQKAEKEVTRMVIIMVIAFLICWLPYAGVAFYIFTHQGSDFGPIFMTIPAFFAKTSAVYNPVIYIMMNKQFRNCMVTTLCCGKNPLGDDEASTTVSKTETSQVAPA

ground-state bovine rhodopsin (native, from rod outer segments), sequence (P02699 whole entry): as above

binding result [1]: binds | binding result [2]: binds
B1: Nb22 (VHH)
VHH: QVQLVESGGGLVQAGGSLRLSCTASGNSFTFYTMGWYRQAPGKQRELVASITHRDSTNYADSMKDRFTISRDNSKNTVYLQMNSLKAEDTAVYYCNLHGRTRLLGREYDYWGQGTQVTVSS

binding result [1]: binds | binding result [2]: binds
B2: Nb12 (VHH)
VHH: QVQLVESGGGLVQPGGSLRLSCAASGFTFNRYVMNWVRQAPGKGLEWVSGISRDGSYTDYADSVKGRFTISRDNAKDTLYLQMNSLKPEDTAVYYCSKYNSVVTTPPGQGTQVTVSS
